In patent US20050233963A1 (priority 2000, published 2005):

Key:
[1] = system: HIV-1; test: HIV-1 particle release, p24 antigen capture ELISA in transfected HeLa cells; type: cell-based, human immunodeficiency virus type 1; settings: co-expression in HeLa cells
Description: FIG. 20B: Alternatively, HeLa cells were co-transfected with 1 μg of Vpu^+ or Vpu^− proviral genomes and 10 μg pHIV-TARluc (Luc) or pHIV-FTPR. Thirty-six hours after transfection the amount of p24 Gag in the media and cell pellets was quantified using an antigen capture ELISA. The relative particle release is given by the ratio of extracellular to intracellular p24. The data were normalized to the control (Luc). The error bars represent the error of the mean for three independent experiments.
Triplicate plates of 5×10^5 HeLa cells were transfected with 1 μg of Vpu^+ (MSMBA) or Vpu^− (DF101) proviral genomes and 10 μg of pHIV-UBP, pHIV-UBP-N, pHIV-FTPR or pHIV-TARluc. Thirty-six hrs after transfection, media were harvested and centrifuged at low-speed to remove cellular debris. The cells were washed with 1×PBS, resuspended in 1 ml of PBS, then pelleted at 5000×g in microfuge tubes. The cell pellets and media were treated with lysis buffer and applied to an HIV-1 p24 antigen assay kit following the instructions of the manufacturer (Coulter, Westbrook, Maine). Samples were processed along with positive controls to give quantitative levels of p24 Gag. Data were plotted as a function of the relative p24 units.

[2] = target: T1, hsc70 (Bos taurus, UniProt P19120); test: UBP far-western analysis on hsc70; type: binding; settings: GST fusions as probe
T1 construct: purchased Stressgen
T1 sequence (P19120 2-650 limits assumed): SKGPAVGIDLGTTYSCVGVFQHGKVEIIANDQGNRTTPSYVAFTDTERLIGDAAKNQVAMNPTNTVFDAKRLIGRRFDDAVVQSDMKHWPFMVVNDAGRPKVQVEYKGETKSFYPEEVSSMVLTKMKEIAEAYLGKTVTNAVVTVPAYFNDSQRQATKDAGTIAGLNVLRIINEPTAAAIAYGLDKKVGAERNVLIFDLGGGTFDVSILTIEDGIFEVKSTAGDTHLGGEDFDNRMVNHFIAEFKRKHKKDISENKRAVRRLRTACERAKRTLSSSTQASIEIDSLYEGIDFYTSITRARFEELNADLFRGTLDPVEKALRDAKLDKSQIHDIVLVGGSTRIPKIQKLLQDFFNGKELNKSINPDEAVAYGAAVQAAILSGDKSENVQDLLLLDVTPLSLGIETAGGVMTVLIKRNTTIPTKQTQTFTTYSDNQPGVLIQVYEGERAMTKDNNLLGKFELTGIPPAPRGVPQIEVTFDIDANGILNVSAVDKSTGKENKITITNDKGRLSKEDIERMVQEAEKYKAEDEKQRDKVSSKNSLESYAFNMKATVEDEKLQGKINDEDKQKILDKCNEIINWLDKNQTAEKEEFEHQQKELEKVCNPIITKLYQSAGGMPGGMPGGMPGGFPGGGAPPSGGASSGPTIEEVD
Excerpt: FIG. 13A: Thirty μg of HeLa cell lysate was separated by SDS-PAGE in three identical lanes, blotted to nitrocellulose and probed with either, no probe (none), GST alone, or GST-UBP. The far-western blot was then developed with anti-GST antibody to reveal bands which interact with UBP. The arrow to the right indicates a 70 kD band detected by the GST-UBP fusion. The numbers to the left of each blot represent molecular weights in kilodaltons. […] FIG. 13C, Samples from the GST-UBP pull down assay were analyzed by western blot for the presence hsc70. At the bottom of the gel, the contents of each reaction are indicated by the plus symbols. The NaCl concentration of the washing buffer (100, 200, 300, and 500 mM) is indicated at the top of each lane. The arrow to the right of the blot indicates the position of the hsc70 band.
The term “hsc70” is used when referring to both hsp70 and its nearly identical constitutive counterpart, hsc70. […] The numbers to the left of the blots indicate the molecular weights in kilodaltons. The diagram below the blots indicates regions of UBP contained in each fusion construct. The column to the right summarizes the results, where a plus symbol indicates binding and a minus symbol indicates no binding.
Western blots were performed using standard techniques. Briefly, 30 μg HeLa cytoplasmic extract or 20 ng of hsc70, hsp70, or hsp90 were denatured in 1×SDS sample buffer. The samples were loaded on a 10% polyacrylamide gel. Separated protein was transferred to nitrocellulose membranes. The membranes were blocked in 5% dry milk protein in TBS (20 mM Tris [pH 7.4], 100 mM NaCl) for 45 min. The gels with proteins separated on them were transferred to nitrocellulose and blocked against 5% dry milk protein in TBS for 45 min. Primary antibody, either anti-hsp70 or hsp90 monoclonal antibodies, or anti-UBP rabbit polyclonal antibody was incubated with the blots at appropriate concentrations (1:1000 dilutions for each) in 5% milk protein in TBS for 2 hours at 4° C. with gentle rocking. The membranes were washed with TBS for 10 minutes. […]

Molecule	efficiency of virus particle exit (extracellular to intracellular p24 Gag) ([1]; Vpu present)	efficiency of virus particle exit (extracellular to intracellular p24 Gag) ([1]; absence of Vpu)	interaction with hsc70 [2]
N 1/2: N-terminal portion of UBP (a.a. 1-145) (protein, left off: a dimerising Fc or GST) MDNKKRLAYAIIQFLHDQLRHGGLSSDAQESLEVAIQCLETAFGVTVEDSDLALPQTLPEIFEAAATGKEMPQDLRSPARTPPSEEDSAEAERLKTEGNEQMKVENFEAAVHFYGKAIELNPANAVYFCNRAAAYSKLGNYAGAV	slight increase	did not significantly increase	did not detectably interact
FTPR: UBP fragment containing TPR 2-4 with flanking charged residues (a.a. 81-209) (protein) TPPSEEDSAEAERLKTEGNEQMKVENFEAAVHFYGKAIELNPANAVYFCNRAAAYSKLGNYAGAVQDCERAICIDPAYSKAYGRMGLALSSLNKHVEAVAYYKKALELDPDNETYKSNLKIAELKLREA	slight increase	did not significantly increase	–
C 1/2: C-terminal half of UBP (a.a. 145-313) (protein, left off: a dimerising Fc or GST) VQDCERAICIDPAYSKAYGRMGLALSSLNKHVEAVAYYKKALELDPDNETYKSNLKIAELKLREAPSPTGGVGSFDIAGLLNNPGFMSMASNLMNNPQIQQLMSGMISGGNNPLGTPGTSPSQNDLASLIQAGQQFAQQMQQQNPELIEQLRSQIRSRTPSASNDDQQE	–	–	did not detectably interact
TPR 2-4 (protein, left off: a dimerising Fc or GST) KTEGNEQMKVENFEAAVHFYGKAIELNPANAVYFCNRAAAYSKLGNYAGAVQDCERAICIDPAYSKAYGRMGLALSSLNKHVEAVAYYKKALELDPDNETY	–	–	capable of stable interaction
